One block for each binder: values may come before it. Square brackets hold non-standard residues; d marks the D form. Ends that are not written are not given here. pT = C[C@@H](OP(=O)(O)O)[C@H](N)C(=O)O; pS = N[C@@H](COP(=O)(O)O)C(=O)O
Tests used:
[1] = target: T1, APLF FHA domain (residues 1-106) (UniProt Q8IW19 1-106); assay: ITC; peptide injected (30 x 10 ul) into FHA domain in the cell; 22 °C; 50 mM HEPES pH 7.5, 150 mM NaCl, 5 mM β-mercaptoethanol; XRCC1 peptides 1 mM into 100 μM protein, XRCC4 peptides 300 μM into 30 μM protein; single-site binding model; conditions: both partners purified
T1 construct: Cloned BamHI/XhoI in pGEX-6P-1; also called aprataxin- and PNKP-like factor FHA domain; source: E. coli Rosetta2 (DE3), purified (glutathione resin, cleaved with rhinovirus 3C protease, Superdex 75); not shown: GST, N-terminal, cleaved
T1 sequence (looked up): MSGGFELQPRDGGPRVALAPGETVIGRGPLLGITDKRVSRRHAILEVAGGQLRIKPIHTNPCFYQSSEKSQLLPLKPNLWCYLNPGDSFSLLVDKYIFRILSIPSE

[2] = target: T2, selenomethionine-labelled APLF FHA domain L91M (residues 1-106) (UniProt Q8IW19 1-106, L91 M, selenomethionine-labelled); assay: crystal structure; selenomethionine-labelled APLF FHA L91M with peptide at 1:3; hanging drops at 18 °C, 0.1 M Tris pH 8.0, 30% PEG 3350, 0.2 M MgCl2; SAD, refined at 1.4 Å; conditions: both partners purified
T2 construct: residues 1-104 are in the final model; also called APLF L91 M; APLF/XRCC4 SeMet; source: E. coli Rosetta2 (DE3) in SelenoMet medium, purified as the wild-type protein; not shown: GST, N-terminal, cleaved
T2 sequence (looked up): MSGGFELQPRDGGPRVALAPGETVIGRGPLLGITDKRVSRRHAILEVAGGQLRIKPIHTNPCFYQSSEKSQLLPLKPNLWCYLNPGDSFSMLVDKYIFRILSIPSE

- fold tighter binding than the XRCC1 pThr519 peptide [1]: ~8 fold
B1: XRCC4 229-237 peptide phosphorylated on Thr233 (peptide)
peptide: YDESTDEES
HELM: PEPTIDE1{Y.D.E.S.[C[C@@H](OP(=O)(O)O)[C@H](N[*:1])C(=O)[*:2]].D.E.E.S.[am]}$$$$V2.0; N-terminus assumed
SMILES: C[C@@H](OP(=O)(O)O)[C@H](NC(=O)[C@H](CO)NC(=O)[C@H](CCC(=O)O)NC(=O)[C@H](CC(=O)O)NC(=O)[C@@H](N)Cc1ccc(O)cc1)C(=O)N[C@@H](CC(=O)O)C(=O)N[C@@H](CCC(=O)O)C(=O)N[C@@H](CCC(=O)O)C(=O)N[C@@H](CO)C(N)=O
notes: also called mono-phosphorylated (pT233) XRCC4; XRCC4 peptide phosphorylated solely on the threonine in the core motif; source: synthetic peptide (Dr. W. Mawby, University of Bristol), purified by HPLC

- fold weaker binding than the triphosphorylated XRCC4 peptide [1]: 26 fold
- stoichiometry N [1]: ~2 APLF FHA domains per peptide
B2: XRCC1 515-529 peptide phosphorylated on Ser518, Thr519 and Thr523 (peptide)
peptide: YAG[pS][pT]DEN[pT]DSEEHQ-NH2
modifications: N-terminus assumed
SMILES: C[C@H](NC(=O)[C@@H](N)Cc1ccc(O)cc1)C(=O)NCC(=O)N[C@@H](COP(=O)(O)O)C(=O)N[C@H](C(=O)N[C@@H](CC(=O)O)C(=O)N[C@@H](CCC(=O)O)C(=O)N[C@@H](CC(N)=O)C(=O)N[C@H](C(=O)N[C@@H](CC(=O)O)C(=O)N[C@@H](CO)C(=O)N[C@@H](CCC(=O)O)C(=O)N[C@@H](CCC(=O)O)C(=O)N[C@@H](Cc1c[nH]cn1)C(=O)N[C@@H](CCC(N)=O)C(N)=O)[C@@H](C)OP(=O)(O)O)[C@@H](C)OP(=O)(O)O
notes: XRCC1 residues 515-529; also called YAGpSpTDENpTDSEEHQ; tri-phosphorylated XRCC1 peptide; source: synthetic peptide (Dr. W. Mawby, University of Bristol), purified by HPLC

- binding result [2]: binds
B3: XRCC4 229-237 peptide phosphorylated on Ser232, Thr233 and Ser237 (peptide)
peptide: YDE[pS][pT]DEE[pS]-NH2
modifications: N-terminus assumed
SMILES: C[C@@H](OP(=O)(O)O)[C@H](NC(=O)[C@H](COP(=O)(O)O)NC(=O)[C@H](CCC(=O)O)NC(=O)[C@H](CC(=O)O)NC(=O)[C@@H](N)Cc1ccc(O)cc1)C(=O)N[C@@H](CC(=O)O)C(=O)N[C@@H](CCC(=O)O)C(=O)N[C@@H](CCC(=O)O)C(=O)N[C@@H](COP(=O)(O)O)C(N)=O
notes: also called tri-phosphorylated XRCC4 peptide; triphosphorylated XRCC4; source: synthetic peptide (Dr. W. Mawby, University of Bristol), purified by HPLC

- stoichiometry N [1]: ~2 APLF FHA domains per peptide
B4: XRCC1 515-529 peptide phosphorylated on Ser518, Thr519, Thr523 and Ser525 (peptide)
peptide: YAG[pS][pT]DEN[pT]D[pS]EEHQ-NH2
modifications: N-terminus assumed
SMILES: C[C@H](NC(=O)[C@@H](N)Cc1ccc(O)cc1)C(=O)NCC(=O)N[C@@H](COP(=O)(O)O)C(=O)N[C@H](C(=O)N[C@@H](CC(=O)O)C(=O)N[C@@H](CCC(=O)O)C(=O)N[C@@H](CC(N)=O)C(=O)N[C@H](C(=O)N[C@@H](CC(=O)O)C(=O)N[C@@H](COP(=O)(O)O)C(=O)N[C@@H](CCC(=O)O)C(=O)N[C@@H](CCC(=O)O)C(=O)N[C@@H](Cc1c[nH]cn1)C(=O)N[C@@H](CCC(N)=O)C(N)=O)[C@@H](C)OP(=O)(O)O)[C@@H](C)OP(=O)(O)O
notes: XRCC1 residues 515-529; also called tetra-phosphorylated XRCC1 peptide; source: synthetic peptide (Dr. W. Mawby, University of Bristol), purified by HPLC

- fold increase in binding over the mono-phosphorylated peptide [1]: ~3 fold
B5: XRCC1 515-529 peptide phosphorylated on Ser518 and Thr519 (peptide)
peptide: YAGSTDENTDSEEHQ
HELM: PEPTIDE1{Y.A.G.[O=C([C@H](COP(=O)(O)O)N[*:1])[*:2]].[C[C@@H](OP(=O)(O)O)[C@H](N[*:1])C(=O)[*:2]].D.E.N.T.D.S.E.E.H.Q.[am]}$$$$V2.0; N-terminus assumed
SMILES: C[C@H](NC(=O)[C@@H](N)Cc1ccc(O)cc1)C(=O)NCC(=O)N[C@@H](COP(=O)(O)O)C(=O)N[C@H](C(=O)N[C@@H](CC(=O)O)C(=O)N[C@@H](CCC(=O)O)C(=O)N[C@@H](CC(N)=O)C(=O)N[C@H](C(=O)N[C@@H](CC(=O)O)C(=O)N[C@@H](CO)C(=O)N[C@@H](CCC(=O)O)C(=O)N[C@@H](CCC(=O)O)C(=O)N[C@@H](Cc1c[nH]cn1)C(=O)N[C@@H](CCC(N)=O)C(N)=O)[C@@H](C)O)[C@@H](C)OP(=O)(O)O
notes: XRCC1 residues 515-529; also called di-phosphorylated XRCC1 peptide; source: synthetic peptide (Dr. W. Mawby, University of Bristol), purified by HPLC
